Measurements reported in patent US20240360214A1 (Pfizer, published 2024).
Numbering of substitutions follows the chain as printed. Read-outs that look alike come from different tables or passages of the source.

Tests used:
[1] = target: T1, human LILRB2 (huLILRB2), purified recombinant protein (human, UniProt Q8N423 22-458, limits assumed); assay: SPR (Biacore 8K, 37 C), antibody captured by anti-human Fc, huLILRB2 as analyte, 1:1 fit
T1 construct: Bought protein, used as the SPR analyte and as the ELISA coat; also called huLILIB2
T1 sequence (Q8N423 22-458 limits assumed): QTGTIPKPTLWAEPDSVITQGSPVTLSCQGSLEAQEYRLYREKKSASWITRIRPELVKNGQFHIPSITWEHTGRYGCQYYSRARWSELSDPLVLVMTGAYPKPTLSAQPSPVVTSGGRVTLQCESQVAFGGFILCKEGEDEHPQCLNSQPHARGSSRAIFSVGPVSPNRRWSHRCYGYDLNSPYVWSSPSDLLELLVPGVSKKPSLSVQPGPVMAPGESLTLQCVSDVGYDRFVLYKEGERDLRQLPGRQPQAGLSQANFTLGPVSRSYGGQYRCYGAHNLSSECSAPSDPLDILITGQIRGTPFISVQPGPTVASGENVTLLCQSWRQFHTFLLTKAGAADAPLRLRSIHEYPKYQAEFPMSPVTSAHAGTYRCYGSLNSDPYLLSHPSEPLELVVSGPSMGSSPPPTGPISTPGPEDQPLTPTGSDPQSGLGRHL

[2] = target: T2, LILRB2 expressed on THP1 cells (human, UniProt Q8N423 22-597); assay: flow cytometry competition with PE HLA-G tetramer on THP1-LILRB2 cells
T2 construct: whole, on cells; also called THP1 LILRB2 expressing cells; THP1-LILRB2 cells
T2 sequence (Q8N423 22-597): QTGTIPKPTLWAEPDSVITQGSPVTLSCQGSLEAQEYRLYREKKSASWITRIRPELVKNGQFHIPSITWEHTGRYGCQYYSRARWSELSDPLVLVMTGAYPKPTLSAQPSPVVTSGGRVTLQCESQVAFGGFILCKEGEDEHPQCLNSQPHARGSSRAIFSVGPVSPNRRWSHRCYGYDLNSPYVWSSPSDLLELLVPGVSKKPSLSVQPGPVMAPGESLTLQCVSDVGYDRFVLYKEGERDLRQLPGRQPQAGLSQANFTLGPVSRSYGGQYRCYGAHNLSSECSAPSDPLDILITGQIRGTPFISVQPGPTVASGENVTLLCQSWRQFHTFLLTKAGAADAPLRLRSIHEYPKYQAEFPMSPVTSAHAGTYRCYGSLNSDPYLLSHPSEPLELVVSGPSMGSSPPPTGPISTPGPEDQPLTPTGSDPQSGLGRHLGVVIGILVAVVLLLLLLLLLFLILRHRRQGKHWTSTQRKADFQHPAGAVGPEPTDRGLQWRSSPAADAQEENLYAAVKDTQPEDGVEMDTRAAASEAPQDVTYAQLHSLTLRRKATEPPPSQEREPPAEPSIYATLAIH
Protocol: (§1) LILRB1 or LILRB2 overexpressing THP1 cells were prepared in FACS buffer (0.5% BSA in PBS) and seeded in 100 μl/well (96 well plate) at 1λ10⁶ cells/ml concentration. The tested antibodies were serially diluted 3-fold into assay buffer starting from 200 nM. 40 μl of serial diluted antibody together with 40 μl of PE labelled HLA-G tetramer (FRED HUTCH IMT40509) at 2 ug/ml were added to each well and incubated on ice for 1 hour. The cells were washed 2 times with FACS buffer and resuspended in 50 μl/well FACS buffer containing 1:1000 dilution of LIVE/Dead fixable violet dead cell stain (Invitrogen #L34964), incubated on ice for 15 minutes. The cells were then washed with FACS buffer for 2 times and resuspended in 80 μl of Cytofix buffer (BD Cat #554655).
(§2) The cell-based HLA-G ligand blocking assays followed the same procedure as described in Example 2.

huLILRA6 = huLILRA6 (human, UniProt Q6PI73 24-447, limits assumed); assay: ELISA, target coated on the plate, detection with anti-human IgG-HRP, OD at 450 nm
Protocol: (§3) Purified target proteins huLILRA1, A2, A3, A4, A5, A6, huLILRB1, B2, B3, B4 and B5 (all purchased from R&D) were coated on Nunc-Maxisorb 96-well ELISA plate at 1 ug/ml concentration and stored at 4° C. overnight. Plate was washed 3 times with PBS+0.05% Tween-20 and blocked with PBS+3% milk for 1 hour at room temperature. Tested LILRB1/LILRB2 bispecific antibody was serially diluted 5-fold in PBS+3% milk, starting from 133 nM. Blocking solution was removed and serially diluted antibody was added and incubated for 1 hour at room temperature. Plate was washed and a secondary detecting antibody (goat anti-human IgG-HRP from Invitrogen, Cat #31413, 1:5000) was added and incubated for 30 minutes at room temperature. Plate was washed again for 5 times; signal was developed using TMB substrate and the reaction stopped with 0.18M H₂SO₄. Absorbance was read at 450 nm on an envision plate reader (Perkin Elmer). […] There were no binding activities observed to any of the huLILRA family members tested, and no binding to huLILRB3, B4 or B5.

huLILRB4 = huLILRB4 (human, UniProt Q8NHJ6 22-259, limits assumed); assay: as above
Protocol: as §3

huLILRB3 = huLILRB3 (human, UniProt O75022 24-443, limits assumed); assay: as above
Sequence of huLILRB3 (O75022 24-443 limits assumed): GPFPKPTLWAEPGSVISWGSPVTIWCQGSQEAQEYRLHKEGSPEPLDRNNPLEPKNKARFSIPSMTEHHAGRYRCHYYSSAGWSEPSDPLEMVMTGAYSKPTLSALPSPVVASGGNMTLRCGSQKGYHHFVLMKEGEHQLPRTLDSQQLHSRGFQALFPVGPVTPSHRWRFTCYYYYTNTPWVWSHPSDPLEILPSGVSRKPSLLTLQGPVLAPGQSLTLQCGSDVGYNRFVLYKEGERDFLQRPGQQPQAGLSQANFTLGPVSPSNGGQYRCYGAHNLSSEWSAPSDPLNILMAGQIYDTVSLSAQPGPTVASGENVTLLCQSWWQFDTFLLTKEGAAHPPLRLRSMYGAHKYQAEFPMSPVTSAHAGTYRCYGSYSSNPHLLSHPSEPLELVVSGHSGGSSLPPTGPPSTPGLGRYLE
Protocol: as §3

huLILRB5 = huLILRB5 (human, UniProt O75023 24-458, limits assumed); assay: as above
Sequence of huLILRB5 (O75023 24-458 limits assumed): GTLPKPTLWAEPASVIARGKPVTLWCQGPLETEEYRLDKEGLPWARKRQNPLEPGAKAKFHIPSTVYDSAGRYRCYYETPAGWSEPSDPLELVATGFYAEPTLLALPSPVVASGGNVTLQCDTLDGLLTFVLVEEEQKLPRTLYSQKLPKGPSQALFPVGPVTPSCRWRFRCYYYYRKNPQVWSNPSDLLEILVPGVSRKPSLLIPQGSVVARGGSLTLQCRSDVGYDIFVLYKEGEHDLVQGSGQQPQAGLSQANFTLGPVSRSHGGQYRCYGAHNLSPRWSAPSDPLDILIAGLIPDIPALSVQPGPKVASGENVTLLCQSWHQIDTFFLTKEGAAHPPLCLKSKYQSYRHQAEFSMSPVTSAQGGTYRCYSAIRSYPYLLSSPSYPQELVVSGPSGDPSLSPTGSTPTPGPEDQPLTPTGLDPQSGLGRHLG
Protocol: as §3

huLILRA1 [3] = target: T3, huLILRA1 (human, UniProt O75019 17-461, limits assumed); assay: as above
T3 sequence (O75019 17-461 limits assumed): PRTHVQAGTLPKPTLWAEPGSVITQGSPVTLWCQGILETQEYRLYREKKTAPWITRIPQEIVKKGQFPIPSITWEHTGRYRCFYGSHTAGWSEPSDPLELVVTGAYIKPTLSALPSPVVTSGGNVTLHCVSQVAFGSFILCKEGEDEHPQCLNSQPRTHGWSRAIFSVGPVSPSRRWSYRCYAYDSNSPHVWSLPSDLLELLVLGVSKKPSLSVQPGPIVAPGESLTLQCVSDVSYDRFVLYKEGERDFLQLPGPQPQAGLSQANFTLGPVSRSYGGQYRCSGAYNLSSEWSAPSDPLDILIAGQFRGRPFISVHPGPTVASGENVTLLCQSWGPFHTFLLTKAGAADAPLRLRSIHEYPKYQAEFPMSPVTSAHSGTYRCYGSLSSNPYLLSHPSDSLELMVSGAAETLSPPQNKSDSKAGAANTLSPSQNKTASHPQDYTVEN
Protocol: as §3

huLILRA2 [4] = target: T4, huLILRA2 (human, UniProt Q8N149 24-449, limits assumed); assay: as above
T4 sequence (Q8N149 24-449 limits assumed): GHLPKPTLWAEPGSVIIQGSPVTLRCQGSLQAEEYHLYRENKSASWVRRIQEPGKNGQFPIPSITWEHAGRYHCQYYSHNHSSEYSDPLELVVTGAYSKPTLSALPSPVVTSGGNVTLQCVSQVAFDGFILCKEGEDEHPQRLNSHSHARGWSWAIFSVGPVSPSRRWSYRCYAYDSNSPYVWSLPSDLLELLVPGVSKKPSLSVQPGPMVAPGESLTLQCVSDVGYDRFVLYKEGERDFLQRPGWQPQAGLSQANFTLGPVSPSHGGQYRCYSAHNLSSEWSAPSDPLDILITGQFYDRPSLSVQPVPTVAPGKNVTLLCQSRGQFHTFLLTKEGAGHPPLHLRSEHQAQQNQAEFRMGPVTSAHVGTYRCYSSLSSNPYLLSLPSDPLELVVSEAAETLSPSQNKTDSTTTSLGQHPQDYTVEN
Protocol: as §3

[5] = target: T1, human LILRB2 (huLILRB2), purified …; assay: as above
Protocol: as §3

huLILRA5 [6] = target: T5, huLILRA5 (human, UniProt A6NI73 42-268, limits assumed); assay: as above
T5 sequence (A6NI73 42-268 limits assumed): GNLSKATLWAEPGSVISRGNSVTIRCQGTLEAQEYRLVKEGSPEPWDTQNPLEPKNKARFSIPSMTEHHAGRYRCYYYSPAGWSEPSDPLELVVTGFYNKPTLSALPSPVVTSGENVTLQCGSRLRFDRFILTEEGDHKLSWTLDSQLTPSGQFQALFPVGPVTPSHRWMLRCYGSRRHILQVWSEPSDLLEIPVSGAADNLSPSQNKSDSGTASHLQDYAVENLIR
Protocol: as §3

huLILRA3 = huLILRA3 (human, UniProt Q8N6C8 24-439); assay: as above
Sequence of huLILRA3 (Q8N6C8 24-439 limits assumed): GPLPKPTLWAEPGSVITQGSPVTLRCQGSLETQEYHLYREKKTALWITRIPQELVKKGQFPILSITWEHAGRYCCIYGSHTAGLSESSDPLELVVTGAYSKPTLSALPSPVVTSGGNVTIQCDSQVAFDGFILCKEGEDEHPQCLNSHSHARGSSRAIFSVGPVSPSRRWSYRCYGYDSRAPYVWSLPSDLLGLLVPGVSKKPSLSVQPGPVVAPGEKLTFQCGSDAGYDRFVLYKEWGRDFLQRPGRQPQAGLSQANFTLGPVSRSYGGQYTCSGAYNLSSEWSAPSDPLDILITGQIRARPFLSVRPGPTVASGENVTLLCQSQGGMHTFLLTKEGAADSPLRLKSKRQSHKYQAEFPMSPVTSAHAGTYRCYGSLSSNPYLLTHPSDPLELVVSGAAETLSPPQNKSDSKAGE
Protocol: as §3

huLILRA4 = huLILRA4 (human, UniProt P59901 24-446, limits assumed); assay: as above
Sequence of huLILRA4 (P59901 24-446 limits assumed): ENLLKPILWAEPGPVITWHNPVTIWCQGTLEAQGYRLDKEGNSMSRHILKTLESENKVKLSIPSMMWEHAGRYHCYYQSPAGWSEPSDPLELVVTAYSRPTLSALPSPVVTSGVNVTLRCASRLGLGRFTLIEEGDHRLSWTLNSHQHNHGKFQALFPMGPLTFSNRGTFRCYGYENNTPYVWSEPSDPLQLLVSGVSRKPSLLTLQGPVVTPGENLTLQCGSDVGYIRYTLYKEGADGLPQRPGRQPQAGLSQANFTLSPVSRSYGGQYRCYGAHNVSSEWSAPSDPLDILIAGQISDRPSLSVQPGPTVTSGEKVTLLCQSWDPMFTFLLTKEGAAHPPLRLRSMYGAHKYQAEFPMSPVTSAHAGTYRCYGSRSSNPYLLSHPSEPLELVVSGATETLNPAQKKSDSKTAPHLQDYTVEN
Protocol: as §3

[7] = target: T6, LILRB1 expressed on THP1 cells (human, UniProt Q8NHL6 24-650); assay: flow cytometry competition with PE HLA-G tetramer on THP1-LILRB1 cells
T6 construct: whole, on cells; also called THP1 LILRB1 expressing cells; THP1-LILRB1 cells
T6 sequence (Q8NHL6 24-650): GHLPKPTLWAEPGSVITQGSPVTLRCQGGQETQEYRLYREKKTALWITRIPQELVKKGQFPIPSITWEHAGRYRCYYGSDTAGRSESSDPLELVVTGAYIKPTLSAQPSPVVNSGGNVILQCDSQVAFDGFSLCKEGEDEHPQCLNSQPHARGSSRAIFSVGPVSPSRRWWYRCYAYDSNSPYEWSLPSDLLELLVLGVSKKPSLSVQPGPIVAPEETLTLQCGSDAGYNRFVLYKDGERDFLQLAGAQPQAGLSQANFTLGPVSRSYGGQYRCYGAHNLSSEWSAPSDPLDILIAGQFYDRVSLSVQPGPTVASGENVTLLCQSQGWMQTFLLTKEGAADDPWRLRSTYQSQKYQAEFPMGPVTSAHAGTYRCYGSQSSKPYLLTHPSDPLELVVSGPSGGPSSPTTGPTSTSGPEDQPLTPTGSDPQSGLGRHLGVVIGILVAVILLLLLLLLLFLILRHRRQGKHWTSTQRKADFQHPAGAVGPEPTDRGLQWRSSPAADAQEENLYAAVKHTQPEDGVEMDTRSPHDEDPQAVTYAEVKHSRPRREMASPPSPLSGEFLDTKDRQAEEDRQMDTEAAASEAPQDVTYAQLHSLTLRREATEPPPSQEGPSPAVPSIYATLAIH
Protocol: as §1, §2

[8] = target: T7, human LILRB1 (huLILRB1), purified recombinant protein from R&D Systems (human, UniProt Q8NHL6 24-458, limits assumed); assay: SPR (Biacore 8K, 37 C), antibody captured by anti-human Fc, huLILRB1 as analyte, 1:1 fit
T7 construct: Bought protein, used as the SPR analyte and as the ELISA coat; The catalog number 8429-T4 is printed once for 'human LILRB2 or LILRB1'
T7 sequence (Q8NHL6 24-458 limits assumed): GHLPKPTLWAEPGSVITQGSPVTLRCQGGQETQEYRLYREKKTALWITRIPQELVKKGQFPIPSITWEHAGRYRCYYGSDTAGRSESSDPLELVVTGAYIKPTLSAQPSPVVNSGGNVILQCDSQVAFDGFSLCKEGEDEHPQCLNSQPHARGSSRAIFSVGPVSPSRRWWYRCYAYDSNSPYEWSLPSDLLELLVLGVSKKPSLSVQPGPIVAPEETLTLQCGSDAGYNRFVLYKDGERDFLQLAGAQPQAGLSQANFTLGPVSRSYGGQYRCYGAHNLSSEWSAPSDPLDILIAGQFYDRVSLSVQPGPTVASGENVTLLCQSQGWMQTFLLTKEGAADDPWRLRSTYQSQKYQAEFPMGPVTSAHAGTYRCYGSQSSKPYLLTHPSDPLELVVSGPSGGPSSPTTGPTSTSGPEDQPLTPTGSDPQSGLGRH
Protocol: Biacore kinetic assays were conducted at 37° C. with a collection rate of 10 Hz using the Biacore 8K and 8K+instruments (Cytiva). Anti-LILRB2 antibodies were captured by an anti-human IgG (Fc specific) antibody (BR-1008-39, Cytiva) covalently coupled onto a CM5 sensor chip (29-1496-03, Cytiva) according to the manufacturer's instructions. The final capture levels of the antibodies ranged from 20 resonance units (RU) to 60 RU. HBS-EP+pH 7.4 (10 mM HEPES pH 7.4, 150 mM NaCl, 3 mM EDTA, 0.05% Tween 20) was used as sample and running buffer. Flow cell 1 was used as a reference flow cell. […] Dilutions were prepared in duplicate and injected over all flow cells for 60 s at flow rate of 50 μl per minute. Dissociation was monitored for 600 s and the surface was regenerated with two 30 s injections of 3M MgCl₂ at flow rate of 50 μl per minute. The resulting data was double referenced (Myszka, D. G. Improving biosensor analysis. J. Mol. Recognit. 12:279-284; (1999). Rate constants and affinities were determined by fitting the sensorgram data to a Langmuir 1:1 model using Biacore Insight Evaluation software version 3.0.12 (Cytiva). Results are summarized in Table 7.

huLILRA1 [9] = target: T3, huLILRA1; assay: SPR (Biacore), antibody captured
huLILRA2 [10] = target: T4, huLILRA2; assay: SPR (Biacore), antibody captured
huLILRA5 [11] = target: T5, huLILRA5; assay: SPR (Biacore), antibody captured
[12] = target: T6, LILRB1 expressed on THP1 cells; assay: flow cytometry competition with PE HLA-G tetramer on THP1-LILRB1 cells; remark: listed apart in the source
Protocol: as §1

[13] = target: T6, LILRB1 expressed on THP1 cells; assay: flow cytometry competition with PE HLA-G tetramer on THP1-LILRB1 cells (THP-B1)
Protocol: as §1

[14] = target: T7, human LILRB1 (huLILRB1), purified …; assay: SPR (Biacore 8K, 37 C), antibody captured by anti-human Fc, huLILRB1 as analyte, 1:1 fit; remark: listed apart in the source
Protocol: Biacore kinetic assays were conducted at 37° C. with a collection rate of 10 Hz using the Biacore 8K and 8K+ instruments (Cytiva). […] The final capture levels of the antibodies ranged from 20 resonance units (RU) to 60 RU. HBS-EP+pH 7.4 (10 mM HEPES pH 7.4, 150 mM NaCl, 3 mM EDTA, 0.05% Tween 20) was used as sample and running buffer. Flow cell 1 was used as a reference flow cell. Two-fold serial dilutions of human LILRB2 or LILRB1 (R&D Systems, Catalog number: 8429-T4) were prepared with concentrations from 45 nM to 1.667 nM for LILRB2; 405 nM to […] for LILRB1. Dilutions were prepared in duplicate and injected over all flow cells for 60 s at flow rate of 50 μl per minute. Dissociation was monitored for 600 s and the surface was regenerated with two 30 s injections of 3M MgCl₂ at flow rate of 50 μl per minute. The resulting data was double referenced (Myszka, D. G. Improving biosensor analysis. J. Mol. Recognit. 12:279-284; (1999). Rate constants and affinities were determined by fitting the sensorgram data to a Langmuir 1:1 model using Biacore Insight Evaluation software version 3.0.12 (Cytiva).

B1: LILRB1xLILRB2 bispecific antibody BsAb-1882 (bispecific antibody)
heavy 1: not shown
light 1: SYELTQPPSVSVSPGQTASITCGGNNIGSKGVHWYQQKPGQSPVLVISYDSDRPSGIPERFSGSNSGNTATLTISGTQAMDEADYYCQVWDSSTRVFGTGTKVTVLGQPKAAPSVTLFPPSSEELQANKATLVCLISDFYPGAVTVAWKADSSPVKAGVETTTPSKQSNNKYAASSYLSLTPEQWKSHRSYSCQVTHEGSTVEKTVAPTECSDKTHTCPPCPAPEAAGAPSVFLFPPKPKDTLMISRTPEVTCVVVDVSHEDPEVKFNWYVDGVEVHNAKTKPREEQYNSTYRVVSVLTVLHQDWLNGKEYKCKVSNKALPAPIEKTISKAKGQPREPQVYTLPPCREEMTKNQVSLSCAVKGFYPSDIAVEWESNGQPENNYKTTPPVLDSDGSFFLVSKLTVDKSRWQQGNVFSCSVMHEALHNHYTQKSLSLSPGK
heavy 2: EVQLLESGGGLVQPGGSLRLSCAASGFTFSSYAMSWVRQAPGKGLEWVSAISGSGGSTYYADSVKGRFTISRDNSKNTLYLQMNSLRAEDTAVYYCWRWLNLGDAFDIWGQGTMVTVSSASTKGPSVFPLAPSSKSTSGGTAALGCLVKDYFPEPVTVSWNSGALTSGVHTFPAVLQSSGLYSLSSVVTVPSSSLGTQTYICNVNHKPSNTKVDKKVEPKSCDKTHTCPPCPAPEAAGAPSVFLFPPKPKDTLMISRTPEVTCVVVDVSHEDPEVKFNWYVDGVEVHNAKTKPREEQYNSTYRVVSVLTVLHQDWLNGKEYKCKVSNKALPAPIEKTISKAKGQPREPQVCTLPPSREEMTKNQVSLWCLVKGFYPSDIAVEWESNGQPENNYKTTPPVLDSDGSFFLYSKLTVDKSRWQQGNVFSCSVMHEALHNHYTQKSLSLSPGK
light 2: not shown
notes: The B1 arm Fc chain is joined to the light chain CL; also called LILRB1/LILRB2 bispecific antibody
Kd [1]: 0.73 nM | koff [1]: 0.000323 s⁻¹ | kon [1]: 443000 M⁻¹ s⁻¹ | t½ [1]: 35.8 min | IC50 [2]: 15.4 nM | binding result (huLILRA6): no binding (tested: about 130 nM) | binding result (huLILRB4): no binding (tested: about 130 nM) | binding result (huLILRB3): no binding (tested: about 130 nM) | binding result (huLILRB5): no binding (tested: about 130 nM) | binding result (huLILRA1 [3]): no binding (tested: about 130 nM) | binding result (huLILRA2 [4]): no binding (tested: about 130 nM) | EC50 (read off the curve) [5]: ~0.6 nM | binding result (huLILRA5 [6]): no binding (tested: about 130 nM) | binding result (huLILRA3): no binding (tested: about 130 nM) | binding result (huLILRA4): no binding (tested: about 130 nM) | IC50 [7]: 37.6 nM | Kd [8]: 29.8 nM | koff [8]: 0.0135 s⁻¹ | kon [8]: 457000 M⁻¹ s⁻¹ | t½ [8]: 51.3 s

B2: LILRB1xLILRB2 bispecific antibody BsAb-1880 (bispecific antibody, human IgG1)
heavy 1: not shown
light 1: SYELTQPPSVSVSPGQTASITCGGNNIGSKGVHWYQQKPGQSPVLVISYDSDRPSGIPERFSGSNSGNTATLTISGTQAMDEADYYCQVWDSSTRVFGTGTKVTVLGQPKAAPSVTLFPPSSEELQANKATLVCLISDFYPGAVTVAWKADSSPVKAGVETTTPSKQSNNKYAASSYLSLTPEQWKSHRSYSCQVTHEGSTVEKTVAPTECS
heavy 2: B1 heavy 2 with D223E, C351Y, W368T, L370E
light 2: not shown
IC50 [2]: 16.1 nM | IC50 [7]: 43.2 nM

B3: anti-LILRB1 antibody Ab-B1-1704 (antibody, human IgG1, lambda, V domains shown)
VH: EVQLVESGGGLVQPGGSLRLSCAASGFTFSSYAMHWVRQAPGKGLEWVAVISYDGSNKYYADSVKGRFTISRDNAKNSLYLQMNSLRAEDTAVYYCARDKGIGTSPLDYWGQGTLVTVSS
VL: SYELTQPPSVSVSPGQTASITCGGNNIGSKGVHWYQQKPGQSPVLVISYDSDRPSGIPERFSGSNSGNTATLTISGTQAMDEADYYCQVWDSSTRVFGTGTKVTVLG
binding result (huLILRA1 [9]): no binding | binding result (huLILRA2 [10]): no binding | binding result (huLILRA5 [11]): no binding | IC50 [12]: 1.5 nM | EC50 [13]: 2.69 nM | Kd [14]: 26 nM | koff [14]: 0.014 s⁻¹ | kon [14]: 539000 M⁻¹ s⁻¹ | t½ [14]: 49.5 s
